Test results reported in US20190153112A1 (IMMUTEP S A S, published 2019).

Columns and labels:
[1] = molecular target: human LAG-3 protein (Lymphocyte activation gene-3) on the cell surface (human) (UniProt P18627); assay: flow cytometry on LAG-3-expressing CHO cells, from Table 12
[2] = molecular target: human LAG-3 protein (Lymphocyte activation gene-3) on the cell surface (human) (UniProt P18627); assay: flow cytometry on LAG-3-transfected CHO cells; antibody 1 ng/ml
[3] = molecular target: human LAG-3 protein (Lymphocyte activation gene-3) on the cell surface (human) (UniProt P18627); assay: flow cytometry on LAG-3-transfected CHO cells; antibody 0.4 ng/ml
[4] = molecular target: human LAG-3 protein (Lymphocyte activation gene-3) on the cell surface (human) (UniProt P18627); assay: flow cytometry on LAG-3-transfected CHO cells; antibody 100 ng/ml
[5] = molecular target: human LAG-3 protein (Lymphocyte activation gene-3) on the cell surface (human) (UniProt P18627); assay: flow cytometry on LAG-3-transfected CHO cells; antibody 10000 ng/ml
[6] = molecular target: IMP321 (recombinant soluble human LAG-3Ig fusion protein) (human) (UniProt P18627); assay: Biacore, LAG-3Ig on the chip and 17B4 antibody in the running buffer
Sequence of IMP321 (recombinant soluble human LAG-3Ig fusion protein) (human) (P18627 23-450): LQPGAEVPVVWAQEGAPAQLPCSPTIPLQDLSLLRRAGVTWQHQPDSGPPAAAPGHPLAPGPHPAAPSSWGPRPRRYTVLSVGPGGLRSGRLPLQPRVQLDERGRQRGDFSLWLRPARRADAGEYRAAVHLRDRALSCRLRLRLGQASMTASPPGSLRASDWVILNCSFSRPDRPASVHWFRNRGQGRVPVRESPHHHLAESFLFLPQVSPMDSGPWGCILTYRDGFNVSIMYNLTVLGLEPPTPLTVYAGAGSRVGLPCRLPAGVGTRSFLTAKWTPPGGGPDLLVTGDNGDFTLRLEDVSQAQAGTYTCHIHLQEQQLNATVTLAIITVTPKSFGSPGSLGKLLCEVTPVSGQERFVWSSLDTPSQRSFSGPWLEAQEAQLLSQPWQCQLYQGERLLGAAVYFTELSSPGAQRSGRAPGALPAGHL

[7] = molecular target: IMP321 (recombinant soluble human LAG-3Ig fusion protein) (human) (UniProt P18627); assay: Biacore, 17B4 antibody on the chip and LAG-3Ig in the running buffer
[8] = molecular target: human LAG-3 protein (Lymphocyte activation gene-3) on the cell surface (human) (UniProt P18627); assay: flow cytometry on CD4+ cells of SEB-stimulated PBMCs, mean of three donors
[9] = molecular target: human LAG-3 protein (Lymphocyte activation gene-3) on the cell surface (human) (UniProt P18627); assay: flow cytometry on CD8+ cells of SEB-stimulated PBMCs, mean of three donors
[10] = molecular target: human LAG-3 protein (Lymphocyte activation gene-3) on the cell surface (human) (UniProt P18627); assay: flow cytometry on CD4+ cells of SEB-stimulated PBMCs (Donor 1), from Table 13
[11] = molecular target: human LAG-3 protein (Lymphocyte activation gene-3) on the cell surface (human) (UniProt P18627); assay: flow cytometry on CD8+ cells of SEB-stimulated PBMCs (Donor 1); antibody 7 ng/ml
[12] = molecular target: human LAG-3 protein (Lymphocyte activation gene-3) on the cell surface (human) (UniProt P18627); assay: flow cytometry on CD4+ cells of SEB-stimulated PBMCs (Donor 1); antibody 29 ng/ml
[13] = molecular target: human LAG-3 protein (Lymphocyte activation gene-3) on the cell surface (human) (UniProt P18627); assay: flow cytometry on CD8+ cells of SEB-stimulated PBMCs (Donor 1); antibody 29 ng/ml
[14] = molecular target: human LAG-3 protein (Lymphocyte activation gene-3) on the cell surface (human) (UniProt P18627); assay: flow cytometry on CD4+ cells of SEB-stimulated PBMCs (Donor 1); antibody 126 ng/ml
[15] = molecular target: human LAG-3 protein (Lymphocyte activation gene-3) on the cell surface (human) (UniProt P18627); assay: flow cytometry on CD4+ cells of SEB-stimulated PBMCs (Donor 1); antibody 541 ng/ml
[16] = molecular target: human LAG-3 protein (Lymphocyte activation gene-3) on the cell surface (human) (UniProt P18627); assay: flow cytometry on CD8+ cells of SEB-stimulated PBMCs (Donor 1); antibody 0.4 ng/ml
[17] = molecular target: human LAG-3 protein (Lymphocyte activation gene-3) on the cell surface (human) (UniProt P18627); assay: flow cytometry on CD8+ cells of SEB-stimulated PBMCs (Donor 1); antibody 1.6 ng/ml
[18] = molecular target: human LAG-3 protein (Lymphocyte activation gene-3) on the cell surface (human) (UniProt P18627); assay: flow cytometry on CD8+ cells of SEB-stimulated PBMCs (Donor 1); antibody 541 ng/ml
[19] = molecular target: human LAG-3 protein (Lymphocyte activation gene-3) on the cell surface (human) (UniProt P18627); assay: flow cytometry on CD4+ cells of SEB-stimulated PBMCs (Donor 1); antibody 2326 ng/ml
[20] = molecular target: human LAG-3 protein (Lymphocyte activation gene-3) on the cell surface (human) (UniProt P18627); assay: flow cytometry on CD8+ cells of SEB-stimulated PBMCs (Donor 1); antibody 2326 ng/ml
[21] = molecular target: human LAG-3 protein (Lymphocyte activation gene-3) on the cell surface (human) (UniProt P18627); assay: flow cytometry on LAG-3-expressing CHO cells, mean of four independent experiments
[22] = molecular target: human LAG-3 protein (Lymphocyte activation gene-3) on the cell surface (human) (UniProt P18627); assay: flow cytometry on CD4+ cells of SEB-stimulated PBMCs (Donor 1); antibody 10000 ng/ml
[23] = molecular target: human LAG-3 protein (Lymphocyte activation gene-3) on the cell surface (human) (UniProt P18627); assay: flow cytometry on LAG-3-transfected CHO cells; antibody 0 ng/ml (no-antibody background)
[24] = molecular target: human LAG-3 protein (Lymphocyte activation gene-3) on the cell surface (human) (UniProt P18627); assay: flow cytometry on CD4+ cells of SEB-stimulated PBMCs (Donor 1); antibody 0 ng/ml (no-antibody background)
[25] = molecular target: IMP321 (recombinant soluble human LAG-3Ig fusion protein) (human) (UniProt P18627); assay: FACS, LAG-3Ig-Alexa 488 (1 µg/ml) pre-incubated with antibody 27 ng/ml, then bound to Raji (MHC class II+) cells
[26] = molecular target: IMP321 (recombinant soluble human LAG-3Ig fusion protein) (human) (UniProt P18627); assay: FACS, LAG-3Ig-Alexa 488 (1 µg/ml) pre-incubated with antibody 89 ng/ml, then bound to Raji (MHC class II+) cells
[27] = molecular target: IMP321 (recombinant soluble human LAG-3Ig fusion protein) (human) (UniProt P18627); assay: FACS, LAG-3Ig-Alexa 488 (1 µg/ml) pre-incubated with antibody 990 ng/ml, then bound to Raji (MHC class II+) cells
[28] = molecular target: IMP321 (recombinant soluble human LAG-3Ig fusion protein) (human) (UniProt P18627); assay: FACS, LAG-3Ig-Alexa 488 (1 µg/ml) pre-incubated with antibody 3300 ng/ml, then bound to Raji (MHC class II+) cells

Sequence of human LAG-3 protein (Lymphocyte activation gene-3) on the cell surface (human) (P18627 other isoform, or with tags, fused parts or gaps): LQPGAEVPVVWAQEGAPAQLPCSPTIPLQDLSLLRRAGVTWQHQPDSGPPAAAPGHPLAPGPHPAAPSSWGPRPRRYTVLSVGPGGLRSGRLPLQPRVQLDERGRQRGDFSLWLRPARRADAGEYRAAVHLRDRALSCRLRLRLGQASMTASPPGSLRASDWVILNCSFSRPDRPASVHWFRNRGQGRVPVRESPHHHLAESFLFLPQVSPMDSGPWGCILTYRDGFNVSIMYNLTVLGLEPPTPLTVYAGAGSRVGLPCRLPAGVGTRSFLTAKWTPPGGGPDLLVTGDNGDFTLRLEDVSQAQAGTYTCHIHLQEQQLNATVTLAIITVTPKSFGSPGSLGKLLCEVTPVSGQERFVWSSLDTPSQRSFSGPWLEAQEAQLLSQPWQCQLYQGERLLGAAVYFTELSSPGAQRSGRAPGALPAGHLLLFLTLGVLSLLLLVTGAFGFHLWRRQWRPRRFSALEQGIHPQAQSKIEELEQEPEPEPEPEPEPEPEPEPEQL

antagonistic anti-LAG-3 mouse monoclonal antibody 17B4
EC50 [1]: 700 pM | MFI [2]: 247 MFI | MFI [3]: 179 MFI | MFI [4]: 3170 MFI | MFI [5]: 6090 MFI | Kd [6]: 121 pM | koff [6]: 0.000132 s⁻¹ | kon [6]: 1.09e+06 M⁻¹ s⁻¹ | Ka [7]: 2.71e+08 M⁻¹ | Kd [7]: 3690 pM | koff [7]: 0.000818 s⁻¹ | kon [7]: 222000 M⁻¹ s⁻¹ | EC50 [8]: 800 pM | EC50 [9]: 1000 pM | EC50 [10]: 500 pM | MFI [11]: 606 MFI | MFI [12]: 675 MFI | MFI [13]: 1400 MFI | MFI [14]: 1240 MFI | MFI [15]: 1750 MFI | MFI [16]: 195 MFI | MFI [17]: 309 MFI | MFI [18]: 4090 MFI | MFI [19]: 1940 MFI | MFI [20]: 4830 MFI | EC50 [21]: 700 pM | MFI [22]: 1600 MFI | MFI [23]: 156 MFI | MFI [24]: 106 MFI | MFI of sLAG-3Ig-Alexa 488 [25]: 260 MFI | MFI of sLAG-3Ig-Alexa 488 [26]: 214 MFI | MFI of sLAG-3Ig-Alexa 488 [27]: 35 MFI | MFI of sLAG-3Ig-Alexa 488 [28]: 13 MFI
